B1: Focal adhesion kinase 1 (Gallus gallus (Chicken)), Q00944 (parent)
chain: MAAAYLDPNLNHTPSSSAKTHLGTGMERSPGAMERVLKVFHYFENSSEPTTWASIIRHGDATDVRGIIQKIVDCHKVKNVACYGLRLSHLQSEEVHWLHLDMGVSNVREKFELAHPPEEWKYELRIRYLPKGFLNQFTEDKPTLNFFYQQVKNDYMLEIADQVDQEIALKLGCLEIRRSYGEMRGNALEKKSNYEVLEKDVGLRRFFPKSLLDSVKAKTLRKLIQQTFRQFANLNREESILKFFEILSPVYRFDKECFKCALGSSWIISVELAIGPEEGISYLTDKGANPTHLADFNQVQTIQYSNSEDKDRKGMLQLKIAGAPEPLTVTAPSLTIAENMADLIDGYCRLVNGATQSFIIRPQKEGERALPSIPKLANNEKQGVRSHTVSVSETDDYAEIIDEEDTYTMPSTRDYEIQRERIELGRCIGEGQFGDVHQGIYMSPENPAMAVAIKTCKNCTSDSVREKFLQEALTMRQFDHPHIVKLIGVITENPVWIIMELCTLGELRSFLQVRKFSLDLASLILYAYQLSTALAYLESKRFVHRDIAARNVLVSATDCVKLGDFGLSRYMEDSTYYKASKGKLPIKWMAPESINFRRFTSASDVWMFGVCMWEILMHGVKPFQGVKNNDVIGRIENGERLPMPPNCPPTLYSLMTKCWAYDPSRRPRFTELKAQLSTILEEEKLQQEERMRMESRRQVTVSWDSGGSDEAPPKPSRPGYPSPRSSEGFYPSPQHMVQPNHYQVSGYSGSHGIPAMAGSIYPGQASLLDQTDSWNHRPQEVSAWQPNMEDSGTLDVRGMGQVLPTHLMEERLIRQQQEMEEDQRWLEKEERFLVMKPDVRLSRGSIEREDGGLQGPAGNQHIYQPVGKPDHAAPPKKPPRPGAPHLGSLASLNSPVDSYNEGVKIKPQEISPPPTANLDRSNDKVYENVTGLVKAVIEMSSKIQPAPPEEYVPMVKEVGLALRTLLATVDESLPVLPASTHREIEMAQKLLNSDLAELINKMKLAQQYVMTSLQQEYKKQMLTAAHALAVDAKNLLDVIDQARLKMISQSRPH

Variants of: B1
Conditions: with arp3_bovin ACTR3, P61157

effect of a mutation on the interaction | Variant
increasing interaction | Y397F

From IntAct's records for PubMed 17721515
